From publication PMC5339802 (2017)

B1: RPGRIP1L-C2MED domain, purified, GST removed (domain or fragment)
chain: STDSTDGNLNELHITIRCCNHLQSRASHLQPHPYVVYKFFDFADHDTAIIPSSNDPQFDDHMYFPVPMNMDLDRYLKSESLSFYVFDDSDTQENIYIGKVNVPLISLAHDRCISGIFELTDHQKHPAGTIHVILKWKFAYLPPSGSITTE
B2: RPGRIP1L-C2_(NTERM) domain, purified, GST removed (domain or fragment)
chain: RIHKLEAQLKDIAYGTKQYKFKPEIMPDDSVDEFDETIHLERGENLFEIHINKVTFSSEVLQASGDKEPVTFCTYAFYDFELQTTPVVRGLHPEYNFTSQYLVHVNDLFLQYIQKNTITLEVHQAYSTEYETIAACQLKFHEILEKSGRIFCTASLIGTKGDIPNFGTVEYWFRLRV
B3: RPGRIP1L-C2_(CTERM) domain, purified, GST removed (domain or fragment)
chain: MQQGKDDVSLLSEGQLAEQSLASSEDETEITEDLEPEVEEDMSASDSDDCIIPGPISKNIKQPSEKIRIEIIALSLNDSQVTMDDTIQRLFVECRFYSLPAEETPVSLPKPKSGQWVYYNYSNVIYVDKENNKAKRDILKAILQKQEMPNRSLRFTVVSDPPEDEQDLECEDIGVAHVDLADMFQEGRDLIEQNIDVFDARADGEGIGKLRVTVEALHALQSVYKQYRDDLEA

Experiments:
FITC-labeled MyoVa-GTD [1] = molecular target: T1, FITC-labeled MyoVa-GTD (human, UniProt Q9Y4I1 1448-1855, fluorescein isothiocyanate (FITC) label, site not stated); assay: MST; 300 nM FITC-labeled MyoVa-GTD, serial dilution of RPGRIP1L-C2 domains; 50 mM HEPES, 150 mM NaCl, 5% glycerol, 0.05% tween-20, pH 7.2; Monolith NT.115, LED power 20%, MST power 60%; triplicate
T1 chain: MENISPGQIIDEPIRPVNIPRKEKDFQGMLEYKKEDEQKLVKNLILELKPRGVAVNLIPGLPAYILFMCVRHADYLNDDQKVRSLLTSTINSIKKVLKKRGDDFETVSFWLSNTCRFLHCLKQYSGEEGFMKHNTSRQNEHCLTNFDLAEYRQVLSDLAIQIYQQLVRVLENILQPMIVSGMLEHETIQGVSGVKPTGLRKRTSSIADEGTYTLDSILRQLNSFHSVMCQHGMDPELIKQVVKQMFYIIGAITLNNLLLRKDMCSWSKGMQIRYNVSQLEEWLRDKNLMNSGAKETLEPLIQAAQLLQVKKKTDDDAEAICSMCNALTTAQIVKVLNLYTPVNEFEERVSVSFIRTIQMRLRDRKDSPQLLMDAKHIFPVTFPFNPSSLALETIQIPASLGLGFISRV

FITC-labeled MyoVa-GTD [2] = molecular target: T1, FITC-labeled MyoVa-GTD; assay: MST

| Molecule | Kd (FITC-labeled MyoVa-GTD [1]) [µM] | Kd (FITC-labeled MyoVa-GTD [2]) [µM] |
| --- | --- | --- |
| RPGRIP1L-C2 domains | 3 to 9 |  |
| B1 |  | 8.9 |
| B2 |  | 2.8 |
| B3 |  | 3.8 |
